The target of the test is GST. The test is described as follows: AUC; sedimentation velocity, 40 μM GST, 25 mM HEPES pH 7.4, 500 mM NaCl, 4°C.

GST, sequence (P08515 2-218): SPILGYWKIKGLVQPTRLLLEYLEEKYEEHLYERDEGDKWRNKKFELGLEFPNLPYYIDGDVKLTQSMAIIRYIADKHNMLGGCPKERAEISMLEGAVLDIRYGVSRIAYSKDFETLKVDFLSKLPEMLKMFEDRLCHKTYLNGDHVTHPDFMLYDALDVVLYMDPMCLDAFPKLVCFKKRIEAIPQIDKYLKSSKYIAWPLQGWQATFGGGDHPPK

Take GST: the stoichiometry N – broadly, the number of molecules, sites or subunits per partner or assembly – worked out at 2.
